# Measured values published in US20090258344.
# B1: bacterially expressed Histidine tag fusion of Dbs DH-PH domain protein (protein)
# chain: LRRHVMSELLDTERAYVEELLCVLEGYAAEMDNPLMAHLLSTGLHNKKDVLFGNMEEIYHFHNRIFLRELENYTDCPELVGRCFLERMEDFQIYEKYCQNKPRSESLWRQCSDCPFFQECQRKLDHKLSLDSYLLKPVQRITKYQLLLKEMLKYSRNCEGAEDLQEALSSILGILKAVNDSMHLIAITGYDGNLGDLGKLLMQGSFSVWTDHKRGHTKVKELARFKPMQRHLFLHEKAVLFCKKREENGEGYEKAPSYSYKQSLNMAAVGITENVKGDAKKFEIWYNAREEVYIVQAPTPEIKAAWVNEIRKVLT
# B2: bacterially expressed Histidine tag fusion of KIAA0861 DH-PH domain protein (protein)
# chain: PRRRIIRDLLETEEIYIKEIKSIIDGYITPMDFIWLKHLIPDVLQNNKDFLFGNIRELYEFHNRTFLKELEKCAENPELLAHCFLKRKEDLQIYFKYHKNLPRARAIWQECQDCAYFGVCQRQLDHNLPLFKYLKGPSQRLIKYQMLLKGLLDFESPEDMEIDPGELGGSAKDGPKRTKDSAFSTELQQALAVIEDLIKSCELAVDLAAVTECPDDIGKLGKLLLHGPFSVWTIHKDRYKMKDLIRFKPSQRQIYLFERGIVFCKIRMEPGDQGLSPHYSFKKTMKLMTLSIRQLGRGSHRKFEIASRNGLEKYILQAASKEIRDCWFSEISKLLM
# Legend:
# [1] = target: GST-tag fusion of the GTPase Cdc42
# [2] = target: GST-tag fusion of the GTPase RhoA
Protein,"N-methylanthraniloyl(mant)-GTP incorporation into Rho GTPase, relative fluorescence (guanine nucleotide exchange assay) [1]","N-methylanthraniloyl(mant)-GTP incorporation into Rho GTPase, relative fluorescence (guanine nucleotide exchange assay) [2]"
B1,"KIAA0861 and DBS DH-PH domain proteins are active in exchanging guanine nucleotide from the GST-tag fusions of the GTPases, RhoA and Cdc42","KIAA0861 and DBS DH-PH domain proteins are active in exchanging guanine nucleotide from the GST-tag fusions of the GTPases, RhoA and Cdc42"
B2,"KIAA0861 and DBS DH-PH domain proteins are active in exchanging guanine nucleotide from the GST-tag fusions of the GTPases, RhoA and Cdc42","KIAA0861 and DBS DH-PH domain proteins are active in exchanging guanine nucleotide from the GST-tag fusions of the GTPases, RhoA and Cdc42"
